This is an account of results in article PMC3683045.

For the data set, the system named is preKARS2 (cytosolic precursor of human mitochondrial lysyl-tRNA synthetase) (human), Q15046-2. The data set is described as follows: EMSA. The following applies: 10 mM Mg2+; unmodified T7 transcript; EMSA: 20 mM Tris-HCl pH 7.5, 150 mM NaCl, 10 mM MgCl2, 5 mM DTT, 10% glycerol, 0.1 mg/ml BSA, 30 C, 15 min; native 8% PAGE in 0.5x Tris-borate pH 8.3, 5% …. (In EMSA bound probe runs differently from free probe, usually more slowly.)
preKARS2 (cytosolic precursor of human mitochondrial lysyl-tRNA synthetase) (human), Q15046-2, sequence (Q15046 other isoform, or with tags, fused parts or gaps): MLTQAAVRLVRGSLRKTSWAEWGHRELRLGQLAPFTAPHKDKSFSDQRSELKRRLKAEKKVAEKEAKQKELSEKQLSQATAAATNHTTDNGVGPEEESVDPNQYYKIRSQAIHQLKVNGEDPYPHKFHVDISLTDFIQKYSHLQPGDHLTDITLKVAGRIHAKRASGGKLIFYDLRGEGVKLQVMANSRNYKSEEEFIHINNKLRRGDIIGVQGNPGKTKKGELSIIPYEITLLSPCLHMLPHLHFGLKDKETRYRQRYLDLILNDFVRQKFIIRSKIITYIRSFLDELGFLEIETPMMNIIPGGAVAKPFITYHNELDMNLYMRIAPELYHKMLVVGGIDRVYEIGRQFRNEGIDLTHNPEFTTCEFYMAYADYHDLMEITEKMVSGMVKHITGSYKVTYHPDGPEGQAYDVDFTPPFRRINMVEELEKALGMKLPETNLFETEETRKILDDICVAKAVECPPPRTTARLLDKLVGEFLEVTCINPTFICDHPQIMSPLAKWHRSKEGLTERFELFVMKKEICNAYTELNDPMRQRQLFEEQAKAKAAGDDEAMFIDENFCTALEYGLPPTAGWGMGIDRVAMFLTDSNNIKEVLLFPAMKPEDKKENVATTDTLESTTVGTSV

With tRK1 (yeast tRNALys CUU), the Kd (in general, the equilibrium constant for the complex coming apart) was determined as 300 nM.
